Data taken from IntAct's records for PubMed 19817875.

B1: Actin nucleation-promoting factor WAS (Homo sapiens), P42768 (parent)
chain: MSGGPMGGRPGGRGAPAVQQNIPSTLLQDHENQRLFEMLGRKCLTLATAVVQLYLALPPGAEHWTKEHCGAVCFVKDNPQKSYFIRLYGLQAGRLLWEQELYSQLVYSTPTPFFHTFAGDDCQAGLNFADEDEAQAFRALVQEKIQKRNQRQSGDRRQLPPPPTPANEERRGGLPPLPLHPGGDQGGPPVGPLSLGLATVDIQNPDITSSRYRGLPAPGPSPADKKRSGKKKISKADIGAPSGFKHVSHVGWDPQNGFDVNNLDPDLRSLFSRAGISEAQLTDAETSKLIYDFIEDQGGLEAVRQEMRRQEPLPPPPPPSRGGNQLPRPPIVGGNKGRSGPLPPVPLGIAPPPPTPRGPPPPGRGGPPPPPPPATGRSGPLPPPPPGAGGPPMPPPPPPPPPPPSSGNGPAPPPLPPALVPAGGLAPGGGRGALLDQIRQGIQLNKTPGAPESSALQPPPQSSEGLVGALMHVMQKRSRAIHSSDEGEDQAGDEDEDDEWDD

Tests used:
Conditions in all cases: with wipf1_human WIPF1, O43516
[1] = variants of: B1
[2] = variants of: B1; remark: listed apart in the source
[3] = variants of: B1; remark: listed apart in the source

Sequence of wipf1_human WIPF1, O43516 (O43516 whole entry): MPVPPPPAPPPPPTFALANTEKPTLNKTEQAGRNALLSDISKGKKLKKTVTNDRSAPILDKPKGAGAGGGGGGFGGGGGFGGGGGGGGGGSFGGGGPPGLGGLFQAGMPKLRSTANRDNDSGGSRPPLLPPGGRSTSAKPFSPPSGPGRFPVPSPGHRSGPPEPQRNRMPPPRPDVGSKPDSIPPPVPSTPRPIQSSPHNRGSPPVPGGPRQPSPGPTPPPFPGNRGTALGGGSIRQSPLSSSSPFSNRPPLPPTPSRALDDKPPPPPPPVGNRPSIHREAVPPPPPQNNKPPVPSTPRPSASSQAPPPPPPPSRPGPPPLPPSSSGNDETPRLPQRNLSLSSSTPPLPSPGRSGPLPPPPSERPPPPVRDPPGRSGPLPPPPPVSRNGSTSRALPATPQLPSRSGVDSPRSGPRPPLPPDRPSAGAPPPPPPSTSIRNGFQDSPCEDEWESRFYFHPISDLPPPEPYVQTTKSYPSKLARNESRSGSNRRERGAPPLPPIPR

Row | Variant | effect of a mutation on the interaction [1] | effect of a mutation on the interaction [2] | effect of a mutation on the interaction [3]
1 | MSGGPMGGRPGGRGAPAVQQNIPSTLLQDHENQRLFEMLGRKCLTLATAVVQLYLALPPGAEHWTKEHCGAVCFVKDNPQKSYFTRLYGLQAGRLLWEQELYSQLVYSTPTPFFHTFAGDDCQAGLNFADEDEAQAFRALVQEKIQKRNQRQSGDRRQLPPPPTPANEERRGGLPPLPLHPGGDQGGPPVGPLSLGLATVDIQNPDITSSRYRGLPAPGPSPADKKRSGKKKISKADIGAPSGFKHVSHVGWDPQNGFDVNNLDPDLRSLFSRAGISEAQLTDAETSKLIYDFIEDQGGLEAVRQEMRRQEPLPPPPPPSRGGNQLPRPPIVGGNKGRSGPLPPVPLGIAPPPPTPRGPPPPGRGGPPPPPPPATGRSGPLPPPPPGAGGPPMPPPPPPPPPPPSSGNGPAPPPLPPALVPAGGLAPGGGRGALLDQIRQGIQLNKTPGAPESSALQPPPQSSEGLVGALMHVMQKRSRAIHSSDEGEDQAGDEDEDDEWDD [I85T] | with no effect | disrupting interaction strength | decreasing interaction strength
2 | MSGGPMGGRPGGRGAPAVQQNIPSTLLQDHENQRLFEMLGRKCLTLATAVVQLYLALPPGAEHWTKEHCGAVCFVKDNPQKSYFIRLYGLQAGRLLWEQELYSQLVYSTPTPFFHTFAGDDCQAGLNFADEDETQAFRALVQEKIQKRNQRQSGDRRQLPPPPTPANEERRGGLPPLPLHPGGDQGGPPVGPLSLGLATVDIQNPDITSSRYRGLPAPGPSPADKKRSGKKKISKADIGAPSGFKHVSHVGWDPQNGFDVNNLDPDLRSLFSRAGISEAQLTDAETSKLIYDFIEDQGGLEAVRQEMRRQEPLPPPPPPSRGGNQLPRPPIVGGNKGRSGPLPPVPLGIAPPPPTPRGPPPPGRGGPPPPPPPATGRSGPLPPPPPGAGGPPMPPPPPPPPPPPSSGNGPAPPPLPPALVPAGGLAPGGGRGALLDQIRQGIQLNKTPGAPESSALQPPPQSSEGLVGALMHVMQKRSRAIHSSDEGEDQAGDEDEDDEWDD [A134T] | disrupting interaction strength |  | decreasing interaction strength
3 | MSGGPMGGRPGGRGAPAVQQNIPSTLLQDHENQRLFEMLGRKCLTLATAVVQLYLALPPGAEHWTKEHCGAVYFVKDNPQKSYFIRLYGLQAGRLLWEQELYSQLVYSTPTPFFHTFAGDDCQAGLNFADEDEAQAFRALVQEKIQKRNQRQSGDRRQLPPPPTPANEERRGGLPPLPLHPGGDQGGPPVGPLSLGLATVDIQNPDITSSRYRGLPAPGPSPADKKRSGKKKISKADIGAPSGFKHVSHVGWDPQNGFDVNNLDPDLRSLFSRAGISEAQLTDAETSKLIYDFIEDQGGLEAVRQEMRRQEPLPPPPPPSRGGNQLPRPPIVGGNKGRSGPLPPVPLGIAPPPPTPRGPPPPGRGGPPPPPPPATGRSGPLPPPPPGAGGPPMPPPPPPPPPPPSSGNGPAPPPLPPALVPAGGLAPGGGRGALLDQIRQGIQLNKTPGAPESSALQPPPQSSEGLVGALMHVMQKRSRAIHSSDEGEDQAGDEDEDDEWDD [C73Y] | disrupting interaction strength |  | decreasing interaction strength
